Results from EP4375293A1 (Max-Planck-Gesellschaft zur Förderung der Wissenschaften …, dated 2024).

How the values were obtained:
[1] = target: SARS-CoV-2 spike protein of the original Wuhan strain (SARS-CoV-2 (Wuhan/Wildtype strain), UniProt P0DTC2 14-1273); test: cell-based or functional assay
[2] = target: SARS-CoV-2 wild type RBD (wt_RBD-AviHis) (SARS-CoV-2 (Wuhan/Wildtype strain)); test: BLI, biotinylated RBD, mass transport model fit
[3] = target: SARS-CoV-2 wild type RBD (wt_RBD-AviHis) (SARS-CoV-2 (Wuhan/Wildtype strain)); test: BLI, biotinylated RBD, mass transport model fit; remark: listed apart in the source

B1: Ma16B06 (VHH)
VHH: QVQLVESGGGLVRTGGSLRLSCAASGSILQIWAMKWYRQAPGLQREWIATIPNSGEPFYASSVEGRFTGSRENEETVYLYLNNLEPEDTAVYYCEVNEGVPVREYWGQGTQVTVSS
notes: Monomeric VHH; also called VHH Ma16B06
For B1, which “Lowest virus neutralizing concentration (pM; IC99)” value [1] is on record?
Its value is 1700 pM.

What about the Kd [2] of the same binder?
The Kd was ≤ 0.01 nM.

B2: Ma28D01 (VHH)
VHH: QVQLVESGGGLVQPGGSLRLSCVVSELGLDYYQIGWFRQAPGKEREGVSCFRSSDEIRYYADSVKGRFTTFRDNAGTTVYLQMNSLKPEDTGVYYCAVAPQTYYHGTWYGECAAAGMDSWGKGTQVTVSS
notes: Monomeric VHH
B2 was tested. Which “Lowest virus neutralizing concentration (pM; IC99)” value [1] did it give?
Its value is 500 pM.

What about the Kd [2] of the same binder?
Its Kd is ≤ 0.01 nM.

B3: Ma28F04 (VHH)
VHH: QVQLVESGGGLVQPGGSLRLSCVVSDLGLDYYQIGWFRQAPGKEREGVSCFRSSDEIRYYADPVKGRFTTFRDNAGTTVYLQMNSLKPEDTGVYYCAVAPQTYYHGTWYGECAAAGMDSWGKGTLVTVSS
notes: Monomeric VHH
With B3 as the binder, how does the “Lowest virus neutralizing concentration (pM; IC99)” value [1] read?
Its value is 500 pM.

What about the Kd [2] of the same binder?
Its Kd is ≤ 0.01 nM.

B4: Ma28H11 (VHH)
VHH: QVQLVESGGGLVQPGGSLRLSCATSGLTLDHYAIGWFLQAPGKEREGVACVSDDERSLYAPSVMGRFSISRDNAKKTFYLEMNSLKPEDTGVYYCASGPVVPGTLCRIPTVLGYDDWGQGTQVTVSS
notes: Monomeric VHH; also called M28H11
Which “Lowest virus neutralizing concentration (pM; IC99)” value [1] does the source give for B4 here?
Its value is 170 pM.

What about the Kd [2] of the same binder?
The Kd was ≤ 0.01 nM.

B5: Re5D06 (VHH)
VHH: QVQLVESGGGLVQPGGSLRLSCAASGITLDYYAIGWFRQAPGKEREGVSRIRSSDGSTNYADSVKGRFTMSRDNAKNTVYLQMNSLKPEDTAVYYCAYGPLTKYGSSWYWPYEYDYWGQGTQVTVSS
Which Kd [3] does the source give for B5 here?
The Kd was ≤ 0.01 nM.

B6: Re32D03 (VHH)
VHH: QVQLVESGGGLVQPGGSLRLSCAISGITLDYYAVGWFLQAPGKEREGISCMRNWDGRTVYAPSVKGRFTISSDNAKKMVYLEMDNLKSEDTGVYYCAAGPLPPGISCRIPTPLGYDDWGQGTQVTVSS
Which Kd [3] does the source give for B6 here?
The Kd was ≤ 0.01 nM.

B7: Re6H06 (VHH)
VHH: QVQLVESGGGLVQPGGSLRLSCAASGVTLDYYAIGWFRQAPGKEREGVSCTSSSDGSTYYADSVKGRFTISRDNAKNTVYLQMNSLKPEDTGVYYCAVVPQTYYGGKYYSQCTANGMDYWGKGTLVTVSS
How did the Kd [3] turn out when B7 was run?
The Kd was ≤ 0.01 nM.

B8: Re9B09 (VHH)
VHH: QVQLVESGGGLVQPGGSLRLSCAASGFTLDYYAIGWFRQAPGKEREGVSRISSSDGSTDYADSVKGRFTISRDNAKNTVYLQMNSLKPEDTAVYYCATVPGTYYSGNWYYTWHPEAVDYWGKGTQVTVSS
How did the Kd [3] turn out when B8 was run?
The Kd was 0.03 nM.
